Measured values as given in the supplement of paper PMC9170038.

The sequences below were run on K4 kissing-loop RNA reporter (assay: apparent KD of K4 kissing-loop reporter; higher = weaker reporter binding). Conditions: Eterna round: R107; input ligand: arginine 13.2 mM.
Experimental: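 RNA-MaP round R107: designed RNA switches with theophylline, tryptophan, arginine or FMN aptamers are transcribed on-chip within common flanks. They are titrated with a labelled K4 kissing-loop RNA reporter in RNA-MaP buffer (100 mM Tris pH 7.5, 80 mM KCl, 4 mM MgCl2), without ligand or with the indicated ligand. Median apparent KD per design.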
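Note: bound reporter read as fluorescence of individual clusters on recovered sequencing chips by microscopy, with normalized cluster intensities fitted with a binding model.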

Sequence	apparent KD of K4 kissing-loop reporter [nM]
GCCGUAGAUUGAAGGAGCGGGAGAGGGAAAGUGAUGUUUUCUCUAUGACGGCGUCCUCGAUCCCAGGUAGGUCGCAAUCUACGGC	80.7
AAAAUAAACCAGUGAUGUUGGUAACCAGAUACCAGCGACGAAAGUCGCCCUUGGCAGCUGUGGACGUACAAAAUAAGUACGUCCU	264
GAAUAAUAACAUGAGUGAUGUUCAUGUAAACGAGGACCGGUACGGCCGCCACUCGAACCUCAUGUAAGCCGUACCAAUAACAAUA [KL-XTryp-A4 #analogue]	120
AUUAAUAACUGAGGAUAUCGUUUUACUGUAGUGAUGUUACAGAAAGUUCAAAUUAUAAUUUCUAUUCGAGAAGGCAGAAUAAUUA [JR_SSFMNB_Sub026]	68.9
UUUCGUCUCUGAGGAUAUCAGACGAGAGUGAUGUUCUCCCAAAGCCCAGUGAUGUUGGAUGCUAUCUGAGAAGGCAGUGGGCGAA [Same State FMN B GF 12]	584
GGCGAAUAAAAUCGCCUAGAGAGAAAGGAUACCAGCACCCGGCGGUGCCCUUGGCAGCCUAGCCCAGUGAUGUUGGGUCCUCUAA [Biaveinbe]	121
ACGUCUUGUAAACUCGUGGUUUCGAUCGAUACCAGUAGCGAGAGUUACCCUUGGCAGCGACAUGAGUGAUGUUCAUGUACGAAGA [KL-XTheoA3]	87.9

Same assay, conditions: Eterna round: R107; input ligand: none

Sequence	apparent KD of K4 kissing-loop reporter [nM]
UGUCAUUGGUCUGAUACCAGUACCCUUGGCAGCCAAGGAGUGAUGUUCCAAGGAUACCAGUACCCUUGGCAGCAGACCGAUGACU [TheoBS 25 #DoubleAptamer #SwitchBubble]	758
GCCGUACGCAUGGAUACCAGCAGAACUGCCCUCCCAGUGAUGUUGGGAGGAUCUUUCCUUUGCCCUUGGCAGCCAUGCGUACGGC	124
AAAAUAAACCAGUGAUGUUGGUAUCCGGAUACCAGCGAUAAUCAUCGCCCUUGGCAGCCGCGGACGUACAAAAUAAGUACGUCCU [MatMod 14 - Jieux - Same State - Theophylline A]	175
CUCUAACUGAGAAGGAGCGCGAUAUAAACACUCGCACAGUGAUGUUGUGUGUCAAGGGUAUCGCAGGUAGGUCGCUCAGAUACCU [Arg B SS t15]	255
ACUUUGGGCCCAGUGAUGUUGGGUCCAGAUACCAGACGUAAAUAAGUCCCUUGGCAGCUGCGUACUAACUAGCACAGGAGGGUCC [Edleaes]	150
UGUCAUUGGUCUGAUACCAGUCCCUUGGCAGCCAAAUGGAGUGAUGUUCCAAGGAUACCAGACCCUUGGCAGCAGACCGAUGACU [TheoBS 26 #DoubleAptamer #SwitchBubble]	552
GUGGCACGAAAGUGCCACGCAUCCUCUCCCUAGGAUAUCUGGAAACAGAGAAGGAGGUCAUGAGUGAUGUUCAUCCAGAGGAUGC	756
GAGGUGGAGUGAUGUUCCACACUCGCUAGUAAGGAUAUGGCUGCUUCCAGAAGGUACCUAGAUUCAGUGUGCAUCAGUAACGUGC [theeternabot_exclusion_KL_FMN_A_4]	106
GCGUAGAUUAGCAGUGAUGUUGCUACGGAAGGAGCGCGUGAAAACGCAGGUAGGUCGCCGACAAAAUUAAUUUUAAUGUCUGCGC [KL-SSArg-A6]	596
GUUACGCAUGGAAGGAGCGCAGGCUCAACUUGAAGCUCAGUGAUGUUGAGCAAAUUAAAACUGCAGGUAGGUCGCCAUGUGUAAC [Ex Arginine B K4 27]	655
ACGUGCACCAGUGAUGUUGGAAAAUAUGAAGGAGCGGGUGAAAACCCAGGUAGGUCGCAUAAUAGCACGAGCCACGAAAGUGGCA	157
GUUAUGGACCUGGAUACCAGCUGGUACAAGGUCGGUCUACAUGAGUGAUGUUCAUGUGUCAGCCCUUGGCAGCCAGCAACCGGCA [KL-XTheo-B10]	101
CCUUGAGAGUGAUGUUCUCGAGUGAAAGUCAAGGAUAUCCCGCGGUGGAGAAGGUGAUGGCGAACUUGACUGCUGUCAGUCCUAA [theeternabot_exclusion_KL_FMN_A_10]	121
AUUUAAUUAACUGAUACCAGACUUUUUGUUUUGUUUAUUACUAGUGAUGUUAGUGUUUCUGUCCCUUGGCAGCAGAAUCUACUUA [JR_ExcTheophyB_Sub019]	191
GGGAAGGAGUGAUGUUUCUUCUGAAUUUCUAAGGAUAUACGAUGCGGUAGAAGGUAGAUGCCUUGCAGGAAAUGUUCACCACGCG [theeternabot_exclusion_KL_FMN_A_2]	150
ACCUACGAUCACAAUAGUGAUUGUAGGAACUAGGAUAUGCUGAAAAGCAGAAGGAGUGAUGUUCCAACUCAUGAAUAACAUGAGA [FmnAX 2 #OpenEnded #K4Late]	249
AAAAUAAUCCAGUGAUGUUGGUCUCCAGAUACCAGCGACGAAAGUCGCCCUUGGCAGCUGUGGACGUACAAAAUAAGUACGUCCU	464
AGGGUAAGGCGUUAACAUGACACCUGGGAAGGAGCGCGGUACACCGCAGGUAGGUCGCCCAGUGAUGUUGGGCGUAAGUAUGAGU [KL-XArg-A22]	185
AUUCAGAUCUGAAGGAGCGCCUUGACAAAUUACUGCUUUGAGCAGUGAUGUUGCUCAAUUAGGCAGGUAGGUCGCAGAUCUAACC [Arg B Ex t7]	414
AAAAUAAAGCAGUGAUGUUGCAUAUGAGAAGGAGCGCACGAAAGUGCAGGUAGGUCGCUCAGCCAAGUGGACGAAAACGUCCACA [#OpenEnded 9 #K4Early]	119
GCCGUAGAUUGAAGGAGCGGGAGAGGGAAAGUGAUGUUUUCUCUAUGACGGCGUCCUCGAUCCCAGGUAGGUCGCAAUCUACGGC	99.7
AAAAUAAACCAGUGAUGUUGGUAACCAGAUACCAGCGACGAAAGUCGCCCUUGGCAGCUGUGGACGUACAAAAUAAGUACGUCCU	257
GAAUAAUAACAUGAGUGAUGUUCAUGUAAACGAGGACCGGUACGGCCGCCACUCGAACCUCAUGUAAGCCGUACCAAUAACAAUA [KL-XTryp-A4 #analogue]	112
AUUAAUAACUGAGGAUAUCGUUUUACUGUAGUGAUGUUACAGAAAGUUCAAAUUAUAAUUUCUAUUCGAGAAGGCAGAAUAAUUA [JR_SSFMNB_Sub026]	53.5
UUUCGUCUCUGAGGAUAUCAGACGAGAGUGAUGUUCUCCCAAAGCCCAGUGAUGUUGGAUGCUAUCUGAGAAGGCAGUGGGCGAA [Same State FMN B GF 12]	554
GGCGAAUAAAAUCGCCUAGAGAGAAAGGAUACCAGCACCCGGCGGUGCCCUUGGCAGCCUAGCCCAGUGAUGUUGGGUCCUCUAA [Biaveinbe]	140
ACGUCUUGUAAACUCGUGGUUUCGAUCGAUACCAGUAGCGAGAGUUACCCUUGGCAGCGACAUGAGUGAUGUUCAUGUACGAAGA [KL-XTheoA3]	92.9

Same assay, conditions: Eterna round: R107; input ligand: theophylline 20 uM

Sequence	apparent KD of K4 kissing-loop reporter [nM]
UGUCAUUGGUCUGAUACCAGUACCCUUGGCAGCCAAGGAGUGAUGUUCCAAGGAUACCAGUACCCUUGGCAGCAGACCGAUGACU [TheoBS 25 #DoubleAptamer #SwitchBubble]	194
GCCGUACGCAUGGAUACCAGCAGAACUGCCCUCCCAGUGAUGUUGGGAGGAUCUUUCCUUUGCCCUUGGCAGCCAUGCGUACGGC	84.8
AAAAUAAACCAGUGAUGUUGGUAUCCGGAUACCAGCGAUAAUCAUCGCCCUUGGCAGCCGCGGACGUACAAAAUAAGUACGUCCU [MatMod 14 - Jieux - Same State - Theophylline A]	268
CUCUAACUGAGAAGGAGCGCGAUAUAAACACUCGCACAGUGAUGUUGUGUGUCAAGGGUAUCGCAGGUAGGUCGCUCAGAUACCU [Arg B SS t15]	273
ACUUUGGGCCCAGUGAUGUUGGGUCCAGAUACCAGACGUAAAUAAGUCCCUUGGCAGCUGCGUACUAACUAGCACAGGAGGGUCC [Edleaes]	154
UGUCAUUGGUCUGAUACCAGUCCCUUGGCAGCCAAAUGGAGUGAUGUUCCAAGGAUACCAGACCCUUGGCAGCAGACCGAUGACU [TheoBS 26 #DoubleAptamer #SwitchBubble]	377
GUGGCACGAAAGUGCCACGCAUCCUCUCCCUAGGAUAUCUGGAAACAGAGAAGGAGGUCAUGAGUGAUGUUCAUCCAGAGGAUGC	738
GAGGUGGAGUGAUGUUCCACACUCGCUAGUAAGGAUAUGGCUGCUUCCAGAAGGUACCUAGAUUCAGUGUGCAUCAGUAACGUGC [theeternabot_exclusion_KL_FMN_A_4]	105
GCGUAGAUUAGCAGUGAUGUUGCUACGGAAGGAGCGCGUGAAAACGCAGGUAGGUCGCCGACAAAAUUAAUUUUAAUGUCUGCGC [KL-SSArg-A6]	423
GUUACGCAUGGAAGGAGCGCAGGCUCAACUUGAAGCUCAGUGAUGUUGAGCAAAUUAAAACUGCAGGUAGGUCGCCAUGUGUAAC [Ex Arginine B K4 27]	644
ACGUGCACCAGUGAUGUUGGAAAAUAUGAAGGAGCGGGUGAAAACCCAGGUAGGUCGCAUAAUAGCACGAGCCACGAAAGUGGCA	128
GUUAUGGACCUGGAUACCAGCUGGUACAAGGUCGGUCUACAUGAGUGAUGUUCAUGUGUCAGCCCUUGGCAGCCAGCAACCGGCA [KL-XTheo-B10]	119
CCUUGAGAGUGAUGUUCUCGAGUGAAAGUCAAGGAUAUCCCGCGGUGGAGAAGGUGAUGGCGAACUUGACUGCUGUCAGUCCUAA [theeternabot_exclusion_KL_FMN_A_10]	109
